Measurements as given in US20120329708A1 (INDIANA UNIVERSITY RESEARCH AND TECHNOLOGY, published 2012).
*1 amine or outer side, *2 acyl side, *3 side chain or, on linkers, in order; H or OH if unused. Where no end group is shown, it is not given here. Side-chain parts run from the residue outwards. [ ]: non-standard residue; d: D form. The star is where a group is joined. 40K‑TE PEG = 40 kDa PEG attached to Cys by thioether; γGlu = O=C(O)[C@H](CCC(=O)[*:2])N[*:1]; Palmitoyl = CCCCCCCCCCCCCCCC(=O)*; Morn = not defined here; Aib = CC(C)(N)C(=O)O

T1: human GIPR (CHO-K1 cells stably expressing human GIPR) (human, UniProt P48546 22-466)
T1 sequence (looked up): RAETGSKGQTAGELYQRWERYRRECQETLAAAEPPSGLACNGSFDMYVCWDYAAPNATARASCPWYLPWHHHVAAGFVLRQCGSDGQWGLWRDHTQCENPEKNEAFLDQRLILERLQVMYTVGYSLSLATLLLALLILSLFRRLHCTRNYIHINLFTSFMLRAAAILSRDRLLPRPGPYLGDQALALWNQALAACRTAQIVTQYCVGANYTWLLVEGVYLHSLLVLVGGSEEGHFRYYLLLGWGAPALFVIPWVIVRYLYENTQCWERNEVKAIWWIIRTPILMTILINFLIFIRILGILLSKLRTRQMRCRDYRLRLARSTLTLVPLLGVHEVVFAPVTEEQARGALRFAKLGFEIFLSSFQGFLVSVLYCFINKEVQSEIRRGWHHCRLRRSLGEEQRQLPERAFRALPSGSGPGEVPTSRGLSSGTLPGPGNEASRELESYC

T2: GIP receptor (procedure of Example 3)
T2 sequence (P48546 whole entry, species assumed, looked up): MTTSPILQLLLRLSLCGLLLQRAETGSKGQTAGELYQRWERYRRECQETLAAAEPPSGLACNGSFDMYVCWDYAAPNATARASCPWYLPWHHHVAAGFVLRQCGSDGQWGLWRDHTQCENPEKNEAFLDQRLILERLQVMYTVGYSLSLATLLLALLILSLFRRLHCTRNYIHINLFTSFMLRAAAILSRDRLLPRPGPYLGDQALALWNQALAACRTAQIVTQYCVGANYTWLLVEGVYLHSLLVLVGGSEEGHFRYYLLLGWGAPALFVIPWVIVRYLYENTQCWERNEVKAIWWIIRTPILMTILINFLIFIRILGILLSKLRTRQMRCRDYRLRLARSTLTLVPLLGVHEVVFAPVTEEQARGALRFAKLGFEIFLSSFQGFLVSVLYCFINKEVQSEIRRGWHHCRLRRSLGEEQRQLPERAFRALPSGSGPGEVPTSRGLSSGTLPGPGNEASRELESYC

B1: peptide of SEQ ID NO: 17 (peptide)
peptide: H[Aib]QGTFTSDK([γGlu-γGlu-Palmitoyl])SKYLD[Aib]RAAQDFVQWLMNTK[γGlu]-NH2
modifications: N-terminus assumed
SMILES: CCCCCCCCCCCCCCCC(=O)N[C@@H](CCC(=O)N[C@@H](CCC(=O)NCCCC[C@H](NC(=O)[C@H](CC(=O)O)NC(=O)[C@H](CO)NC(=O)[C@@H](NC(=O)[C@H](Cc1ccccc1)NC(=O)[C@@H](NC(=O)CNC(=O)[C@H](CCC(N)=O)NC(=O)C(C)(C)NC(=O)[C@@H](N)Cc1c[nH]cn1)[C@@H](C)O)[C@@H](C)O)C(=O)N[C@@H](CO)C(=O)N[C@@H](CCCCN)C(=O)N[C@@H](Cc1ccc(O)cc1)C(=O)N[C@@H](CC(C)C)C(=O)N[C@@H](CC(=O)O)C(=O)NC(C)(C)C(=O)N[C@@H](CCCNC(=N)N)C(=O)N[C@@H](C)C(=O)N[C@@H](C)C(=O)N[C@@H](CCC(N)=O)C(=O)N[C@@H](CC(=O)O)C(=O)N[C@@H](Cc1ccccc1)C(=O)N[C@H](C(=O)N[C@@H](CCC(N)=O)C(=O)N[C@@H](Cc1c[nH]c2ccccc12)C(=O)N[C@@H](CC(C)C)C(=O)N[C@@H](CCSC)C(=O)N[C@@H](CC(N)=O)C(=O)N[C@H](C(=O)N[C@@H](CCCCN)C(=O)N[C@@H](CCC(N)=O)C(=O)O)[C@@H](C)O)C(C)C)C(=O)O)C(=O)O
B2: peptide of SEQ ID NO: 16 (peptide)
peptide: H[Aib]QGTFTSDK([γGlu-γGlu-Palmitoyl])SKYLD[Aib]RAAQDFVQWLLDTKQ-OH
modifications: N-terminus assumed
SMILES: CCCCCCCCCCCCCCCC(=O)N[C@@H](CCC(=O)N[C@@H](CCC(=O)NCCCC[C@H](NC(=O)[C@H](CC(=O)O)NC(=O)[C@H](CO)NC(=O)[C@@H](NC(=O)[C@H](Cc1ccccc1)NC(=O)[C@@H](NC(=O)CNC(=O)[C@H](CCC(N)=O)NC(=O)C(C)(C)NC(=O)[C@@H](N)Cc1c[nH]cn1)[C@@H](C)O)[C@@H](C)O)C(=O)N[C@@H](CO)C(=O)N[C@@H](CCCCN)C(=O)N[C@@H](Cc1ccc(O)cc1)C(=O)N[C@@H](CC(C)C)C(=O)N[C@@H](CC(=O)O)C(=O)NC(C)(C)C(=O)N[C@@H](CCCNC(=N)N)C(=O)N[C@@H](C)C(=O)N[C@@H](C)C(=O)N[C@@H](CCC(N)=O)C(=O)N[C@@H](CC(=O)O)C(=O)N[C@@H](Cc1ccccc1)C(=O)N[C@H](C(=O)N[C@@H](CCC(N)=O)C(=O)N[C@@H](Cc1c[nH]c2ccccc12)C(=O)N[C@@H](CC(C)C)C(=O)N[C@@H](CC(C)C)C(=O)N[C@@H](CC(=O)O)C(=O)N[C@H](C(=O)N[C@@H](CCCCN)C(=O)N[C@@H](CCC(N)=O)C(=O)O)[C@@H](C)O)C(C)C)C(=O)O)C(=O)O
B3: peptide of SEQ ID NO: 15 (peptide)
peptide: H[Aib]QGTFTSDK([γGlu-γGlu-Palmitoyl])SKYLD[Aib]RAAQDFVQWL[Morn]DTKQ-OH
modifications: not fully specified; printed as HaibQGTFTSDK(γGlu-γGlu-C16)SKYLDaibRAAQDFVQWLMornDTKQ-acid; reading uncertain
B4: peptide of SEQ ID NO: 14 (peptide)
peptide: HSQGTFTSDKSKYLDERAAQDFVQWLLDTKX
modifications: s at position 2 (lower case, presumably D-Ser); K(γGlu-C16) at position 10 (Lys acylated with C16 via γGlu spacer); C-terminal γGlu; C-terminal amide

target: human GCGR (CHO-K1 cells stably expressing human GCGR) (human, UniProt P47871 26-477); test: cell-based or functional assay
Sequence (P47871 26-477): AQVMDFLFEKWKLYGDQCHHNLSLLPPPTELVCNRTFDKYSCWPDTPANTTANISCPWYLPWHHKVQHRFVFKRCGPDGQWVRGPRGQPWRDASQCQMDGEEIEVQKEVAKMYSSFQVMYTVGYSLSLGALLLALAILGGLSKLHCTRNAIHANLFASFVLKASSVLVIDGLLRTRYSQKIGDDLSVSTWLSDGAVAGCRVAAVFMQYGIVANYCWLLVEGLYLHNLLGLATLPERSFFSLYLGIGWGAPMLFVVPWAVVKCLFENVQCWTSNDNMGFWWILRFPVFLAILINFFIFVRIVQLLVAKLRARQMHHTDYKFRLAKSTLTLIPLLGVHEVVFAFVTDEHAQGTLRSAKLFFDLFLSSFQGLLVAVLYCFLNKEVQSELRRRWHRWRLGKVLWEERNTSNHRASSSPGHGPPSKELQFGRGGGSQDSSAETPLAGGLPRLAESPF

Binder | EC50 (nM) at glucagon receptor (cAMP production, DiscoveRx Hithunter cAMP XS+, CHO-K1) [nM]
B1 | 0.11

target: human GLP-1R (CHO-K1 cells stably expressing human GLP-1R) (human, UniProt P43220 24-463); test: cell-based or functional assay

Binder | EC50 (nM) at GLP-1 receptor (cAMP production, DiscoveRx Hithunter cAMP XS+, CHO-K1) [nM]
B1 | 0.075

target: T1, human GIPR (CHO-K1 cells stably …); test: cell-based or functional assay

Binder | EC50 (nM) at GIP receptor (cAMP production, DiscoveRx Hithunter cAMP XS+, CHO-K1) [nM]
B1 | > 2000

target: glucagon receptor (HEK293 cells co-transfected with the glucagon receptor and a CRE-luciferase gene); test: cell-based or functional assay

Binder | EC50 (nM) at glucagon receptor (cAMP-induced luciferase reporter, HEK293) [nM]
B2 | 0.015
H[Aib]QGTFTSDYSKYLDERRA[Aib]EFVC(40K‑TE PEG)WLLDTK[γGlu]-NH2 [peptide of SEQ ID NO: 13] | 2.81
H[Aib]QGTFTSDK([γGlu-γGlu-Palmitoyl])SKYLD[Aib]RAAQDFVQWLMDTK[γGlu]-NH2 [peptide of SEQ ID NO: 12] | 0.01
B3 | 0.006
B4 | 0.003

target: GLP-1 receptor (HEK293 cells co-transfected with the GLP-1 receptor and a CRE-luciferase gene); test: cell-based or functional assay

Binder | EC50 (nM) at GLP-1 receptor (cAMP-induced luciferase reporter, HEK293) [nM]
B2 | 0.019
H[Aib]QGTFTSDYSKYLDERRA[Aib]EFVC(40K‑TE PEG)WLLDTK[γGlu]-NH2 [peptide of SEQ ID NO: 13] | 0.567
H[Aib]QGTFTSDK([γGlu-γGlu-Palmitoyl])SKYLD[Aib]RAAQDFVQWLMDTK[γGlu]-NH2 [peptide of SEQ ID NO: 12] | 0.003
B3 | 0.005
B4 | 0.003

target: T2, GIP receptor (procedure of Example 3); test: cell-based or functional assay

Binder | EC50 (nM) at GIP receptor (procedure of Example 3) [nM]
B2 | 1.04
H[Aib]QGTFTSDYSKYLDERRA[Aib]EFVC(40K‑TE PEG)WLLDTK[γGlu]-NH2 [peptide of SEQ ID NO: 13] | 140
H[Aib]QGTFTSDK([γGlu-γGlu-Palmitoyl])SKYLD[Aib]RAAQDFVQWLMDTK[γGlu]-NH2 [peptide of SEQ ID NO: 12] | 12.8
B3 | 1.9
B4 | 976
